Reference: patent publication US20020131970A1 (Scripps Research, published 2002)

What was measured:
[1] = target: intercellular adhesion molecule 1 (ICAM-1), the RGD-independent fibrinogen receptor, native, on the surface of cells (HUVEC, JY lymphocytes) (human) (UniProt P05362); assay: 125I-D30 at 10 µg/ml on HUVEC monolayers
[2] = target: recombinant ICAM-1 on the surface of transfected fibroblast-like (COS) cells of Example 4 (human) (UniProt P05362); assay: 125I-D30 on ICAM-1 transfected cells, with CaCl2, no inhibitor
[3] = target: recombinant ICAM-1 on the surface of transfected fibroblast-like (COS) cells of Example 4 (human) (UniProt P05362); assay: 125I-D30 on ICAM-1 transfected cells, with MnCl2, no inhibitor
[4] = target: T1, intercellular adhesion molecule 1 (ICAM-1), the RGD-independent fibrinogen receptor, native, on the surface … (human, UniProt P05362 28-532); assay: adhesion of 51Cr-labelled ICAM-1+ JY lymphocytes to wells coated with 1-100 µg/ml peptide
T1 construct: whole, on cells; assays on HUVEC monolayers are written against this molecule; also called ECR; endothelial cell receptor
Method: Serum-free suspensions of JY lymphocytes were labeled with 0.5 mCi ⁵¹Cr (Na₂CrO₄, specific activity 487.4 mCi/mg, E. I., DuPont de Nemours, Wilmington, Del.) for 2 h at 37° C., with a final incorporation of 0.2-4 cpm/cell (Languino, et al., supra). Aliquots of ⁵¹Cr-labeled JY lymphocytes at 1×10⁶/ml were added to peptide-coated wells for 45 min at 37° C., washed, solubilized in 20% SDS, and radioactivity associated under the various conditions was determined in a scintillation beta-counter. The number of attached cells was quantitated by dividing the cpm harvested by the cpm/cell. Data are the mean ± S.D. of two independent experiments.
The specific binding of radiolabelled ICAM-1⁺ JY lymphocytes to increasing concentrations of γ3 was measured to characterize the ICAM-1 binding site. The number of attached cells is plotted on the Y-axis against peptide concentration (μg/ml) plotted on the X-axis.

[5] = target: T1, intercellular adhesion molecule 1 …; assay: adhesion of 51Cr-labelled ICAM-1+ JY lymphocytes to peptide-coated wells

Chain of recombinant ICAM-1 on the surface of transfected fibroblast-like (COS) cells of Example 4 (human) (P05362 28-532): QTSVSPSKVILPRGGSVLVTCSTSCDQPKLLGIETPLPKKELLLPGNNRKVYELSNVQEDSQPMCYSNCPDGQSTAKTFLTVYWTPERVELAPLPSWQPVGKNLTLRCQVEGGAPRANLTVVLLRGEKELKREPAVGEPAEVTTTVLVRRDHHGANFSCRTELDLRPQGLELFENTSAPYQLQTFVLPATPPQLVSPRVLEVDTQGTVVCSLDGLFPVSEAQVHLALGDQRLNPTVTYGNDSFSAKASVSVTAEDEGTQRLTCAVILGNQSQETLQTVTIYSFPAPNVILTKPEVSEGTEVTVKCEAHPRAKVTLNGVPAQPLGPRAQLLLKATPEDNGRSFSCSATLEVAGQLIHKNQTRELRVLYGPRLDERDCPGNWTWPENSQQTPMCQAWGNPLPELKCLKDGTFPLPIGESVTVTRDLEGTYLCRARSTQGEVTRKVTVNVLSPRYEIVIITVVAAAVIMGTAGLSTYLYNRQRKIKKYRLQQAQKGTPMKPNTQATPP
T1 sequence (P05362 28-532): as above
Chain of intercellular adhesion molecule 1 (ICAM-1), the RGD-independent fibrinogen receptor, native, on the surface of cells (HUVEC, JY lymphocytes) (human) (P05362 28-532): as above

D30 fragment of fibrinogen (30 kD plasmin digestion product of fragment D) (from UniProt P02671 155-225; P02675 164-250)
cpm bound [1]: 60000 cpm | cpm bound [2]: 3000 cpm | cpm bound [3]: 7500 cpm

B1: polypeptide γ3, fibrinogen γ chain residues 117-133 (peptide)
peptide: NNQKIVNLKEKVAQLEA
notes: Coated on plates in the JY adhesion assays; also called γ3 polypeptide; unlabeled γ3 peptide
binding result [4]: binds

B2: polypeptide L10, fibrinogen γ chain residues 402-411 (peptide)
peptide: LGGAKQAGDV
notes: also called control peptide L10; irrelevant polypeptide L10
binding result [5]: no binding (tested: 1-100 µg/ml coating)
